Earlier results in article PMC4440831 (Chembiochem : a European journal of chemical biology, 2015).

Target: CXCR4 receptor (Homo sapiens, UniProt P61073)
Conditions: earlier work of the same group

CXCR4 receptor, sequence (P61073 whole entry): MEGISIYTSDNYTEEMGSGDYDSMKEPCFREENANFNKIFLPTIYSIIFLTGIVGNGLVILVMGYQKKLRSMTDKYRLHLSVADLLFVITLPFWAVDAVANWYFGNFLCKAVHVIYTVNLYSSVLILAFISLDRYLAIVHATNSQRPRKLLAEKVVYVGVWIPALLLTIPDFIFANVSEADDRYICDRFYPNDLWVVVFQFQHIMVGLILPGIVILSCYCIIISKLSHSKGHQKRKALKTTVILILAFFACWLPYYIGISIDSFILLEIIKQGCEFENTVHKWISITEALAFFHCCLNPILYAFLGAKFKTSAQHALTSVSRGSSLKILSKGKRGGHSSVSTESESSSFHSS

Substance: MCoTI-I: empty scaffold cyclotide (SGSDGGVCPKILQRCRRDSDCPGACICRGNGYCG; not fully specified; Trypsin inhibitor 1; UniProt P82408 1-34, looked up)
- CXCR4 inhibitory activity, result in words: no inhibitory activity
